Bridge positions count the residues as written; N and C are the ends. Square brackets hold non-standard residues; d marks the D form. Ends that are not written are not given here. NMeR = CN[C@@H](CCCNC(=N)N)C(=O)O

In the experiment the target is T1, recombinant human integrin α4β7 (Homo sapiens, UniProt P13612+P26010).
T1 construct: purchased R&D Systems 5397-A30
T1 sequence (P13612 34-970 limits assumed): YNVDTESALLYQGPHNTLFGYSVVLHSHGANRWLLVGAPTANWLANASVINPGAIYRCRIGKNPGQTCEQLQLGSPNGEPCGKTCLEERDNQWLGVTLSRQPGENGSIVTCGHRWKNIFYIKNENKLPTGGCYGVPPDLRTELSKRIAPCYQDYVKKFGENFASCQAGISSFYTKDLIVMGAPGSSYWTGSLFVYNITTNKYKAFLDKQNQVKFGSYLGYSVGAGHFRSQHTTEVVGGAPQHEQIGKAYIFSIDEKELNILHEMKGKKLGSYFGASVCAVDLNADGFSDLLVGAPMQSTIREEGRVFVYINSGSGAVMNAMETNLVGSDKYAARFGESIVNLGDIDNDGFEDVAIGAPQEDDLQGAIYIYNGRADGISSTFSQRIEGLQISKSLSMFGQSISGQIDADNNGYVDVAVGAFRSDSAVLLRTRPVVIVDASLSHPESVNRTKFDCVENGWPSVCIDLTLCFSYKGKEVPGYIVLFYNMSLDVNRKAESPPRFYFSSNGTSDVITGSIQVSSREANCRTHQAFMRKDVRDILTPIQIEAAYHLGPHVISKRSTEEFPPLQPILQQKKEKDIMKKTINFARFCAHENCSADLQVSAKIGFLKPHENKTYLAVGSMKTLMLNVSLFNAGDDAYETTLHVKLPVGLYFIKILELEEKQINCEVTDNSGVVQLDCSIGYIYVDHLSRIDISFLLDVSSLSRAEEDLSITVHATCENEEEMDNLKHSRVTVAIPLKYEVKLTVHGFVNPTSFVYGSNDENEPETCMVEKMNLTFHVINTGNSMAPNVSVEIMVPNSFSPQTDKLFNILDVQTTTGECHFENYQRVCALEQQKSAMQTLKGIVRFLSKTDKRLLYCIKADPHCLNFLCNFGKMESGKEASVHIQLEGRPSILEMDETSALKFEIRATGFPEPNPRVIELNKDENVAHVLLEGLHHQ
T1 sequence (P26010 20-723 limits assumed): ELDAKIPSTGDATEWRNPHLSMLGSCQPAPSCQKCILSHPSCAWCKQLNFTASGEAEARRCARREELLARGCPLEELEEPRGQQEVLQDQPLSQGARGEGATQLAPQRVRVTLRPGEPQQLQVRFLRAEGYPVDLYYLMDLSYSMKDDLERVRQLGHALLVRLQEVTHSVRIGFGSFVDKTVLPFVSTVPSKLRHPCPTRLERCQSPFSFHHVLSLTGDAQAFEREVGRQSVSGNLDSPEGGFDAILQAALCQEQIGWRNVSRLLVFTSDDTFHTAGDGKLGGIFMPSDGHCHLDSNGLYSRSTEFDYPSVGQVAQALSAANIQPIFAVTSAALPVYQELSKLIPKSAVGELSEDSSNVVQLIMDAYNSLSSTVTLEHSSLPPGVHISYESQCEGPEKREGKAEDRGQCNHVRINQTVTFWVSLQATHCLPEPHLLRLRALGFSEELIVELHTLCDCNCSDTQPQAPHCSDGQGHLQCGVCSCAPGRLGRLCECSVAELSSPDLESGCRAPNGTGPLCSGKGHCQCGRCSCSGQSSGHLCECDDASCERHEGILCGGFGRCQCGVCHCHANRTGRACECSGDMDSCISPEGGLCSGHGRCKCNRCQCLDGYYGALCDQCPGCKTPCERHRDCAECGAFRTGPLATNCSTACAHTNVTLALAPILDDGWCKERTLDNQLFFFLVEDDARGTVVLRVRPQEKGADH
In words: α4β7-MAdCAM Competition ELISA. It counts as binding. As to conditions: N-Me-Arg substituted, as compared to SEQ ID NO:39. The method, then: α4β7-MAdCAM Competition ELISA
A nickel coated plate (Pierce # 15442) was coated with recombinant human integrin α4β7 (R&D Systems #5397-A30) at 800 ng/well and incubated at room temperature with shaking for 1 hr. The solution was then remove by shaking and blocked with assay buffer (50 mM Tris-HCl pH7.6, 150 mM NaCl, 1 mM MnCl2, 0.05% Tween-20 and 0.5% BSA) at 250 ul/well. The plate was then incubated at room temperature for 1 hr. Each well was washed 3 times with wash buffer (50 mM Tris-HCl pH7.6, 100mM NaCl, 1 mM MnCl2, 0.05% Tween-20). To each well was added 25 ul of a serial dilution (3-fold dilutions in assay buffer) of peptides starting at 20 μM. 25 ul of recombinant human MAdCAM-1 (R&D Systems #6056-MC) was then added to each well at a fixed concentration 20 nM. The final starting peptide concentration was 10 μM, and the final MAdCAM-1 concentration was 10 nM. The plates were then incubated at room temperature for 1 hr to reach binding equilibrium. The wells were then washed three times with wash buffer. 50 ul of mouse anti-human IgG1-HRP (Invitrogen # A10648) diluted in 1:2000 in assay buffer was then added to each well. The wells were incubated at room temperature for 45 min with shaking. The wells were then washed 3 times with wash buffer. […] The reaction was stopped with 2N H2SO4 and absorbance was read at 450 nm.

In the case of “SEQ ID NO: 48: integrin antagonist peptide substituted with N-Me-Arg (C[NMeR]SDTLCK; disulfide 1-7)”, the “potency for α4β7 in ELISA” value is reported as “increased potency”.

For the origin of these results see patent US20200017549A1, “NOVEL a4B7 PEPTIDE ANTAGONISTS” (Protagonist Therapeutics, Inc., priority 2013, published 2020).
